Source: US20190330280, “TRANSCRIPTIONAL REGULATORY FUSION POLYPEPTIDE” (Astellas Pharma Inc., published 2019)

Assays:
Assay in all cases: cell_activity; human T cells, 3.0 nM protein added to medium, 24 h, 37 C
Conditions in all cases: tags: N-terminal GST, NTP cell-penetrating peptide, p300 core fusion
NTP-TALE-TERT-3-p300CD = molecular target: T1, NTP-TALE-TERT-3-p300CD (artificial, UniProt P14727 SEQ:29-906)
T1 chain: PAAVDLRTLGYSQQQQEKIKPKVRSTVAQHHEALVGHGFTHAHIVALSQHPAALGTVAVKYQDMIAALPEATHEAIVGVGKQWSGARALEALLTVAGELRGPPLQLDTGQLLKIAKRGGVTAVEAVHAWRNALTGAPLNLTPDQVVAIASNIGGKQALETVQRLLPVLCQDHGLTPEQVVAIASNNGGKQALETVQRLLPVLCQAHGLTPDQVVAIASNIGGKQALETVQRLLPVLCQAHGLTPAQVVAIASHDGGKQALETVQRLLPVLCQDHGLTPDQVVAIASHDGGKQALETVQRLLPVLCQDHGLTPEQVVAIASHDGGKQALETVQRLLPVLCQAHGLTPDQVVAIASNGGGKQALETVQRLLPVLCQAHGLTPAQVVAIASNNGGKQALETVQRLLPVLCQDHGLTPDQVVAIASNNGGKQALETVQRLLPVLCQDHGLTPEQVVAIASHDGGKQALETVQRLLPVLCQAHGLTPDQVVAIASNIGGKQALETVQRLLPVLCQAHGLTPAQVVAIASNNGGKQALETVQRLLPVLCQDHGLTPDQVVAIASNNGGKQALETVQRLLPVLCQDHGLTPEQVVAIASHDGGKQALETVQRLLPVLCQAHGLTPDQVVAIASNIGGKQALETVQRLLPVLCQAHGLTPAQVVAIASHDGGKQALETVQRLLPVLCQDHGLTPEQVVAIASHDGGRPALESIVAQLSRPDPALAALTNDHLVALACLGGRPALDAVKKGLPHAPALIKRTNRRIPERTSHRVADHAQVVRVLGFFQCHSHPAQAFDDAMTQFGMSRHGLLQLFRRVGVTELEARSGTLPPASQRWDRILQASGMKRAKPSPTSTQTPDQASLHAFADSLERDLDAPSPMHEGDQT
Procedure: (§1) Each NTP-TALE-Activator (NTP-TALE-TERT-1-p300CD, NTP-TALE-TERT-2-p300CD and NTP-TALE-TERT-3-p300CD) targeting human TERT, prepared in Example 1 was dialyzed at 4° C. for 3 hours against OPTI-MEM medium (Thermo Fisher Scientific Inc.) in a microdialysis column (Tomy Seiko Co., Ltd.). The concentrations after purification were 40 nM NTP-TALE-TERT-1-p300CD, 55 nM NTP-TALE-TERT-2-p300CD, and 55 nM NTP-TALE-TERT-3-p300CD. Human T cells (obtained by separation from peripheral mononuclear cells in blood collected from a healthy person) were suspended in 100 μL of KBM550 (Kohjin Bio Co., Ltd.) and seeded in a 96-well plate at 0.5×10⁴ cells/well.
(§2) The obtained human T cells were cultured for 12 hours. Then, each NTP-TALE-Activator dialyzed as mentioned above was added at 3.0 nM (final concentration) to each well (as a result of conducting studies beforehand with a plurality of concentrations, the concentration at which each NTP-TALE-Activator was most responsive was 3.0 nM). Wells to which NTP-TALE-Activator was not added were prepared as a control. The plate was left standing for 24 hours in an incubator at 37° C. and a CO₂ concentration of 5%.

NTP-TALE-TERT-2-p300CD = molecular target: T2, NTP-TALE-TERT-2-p300CD (artificial, UniProt P14727 SEQ:29-906)
T2 chain: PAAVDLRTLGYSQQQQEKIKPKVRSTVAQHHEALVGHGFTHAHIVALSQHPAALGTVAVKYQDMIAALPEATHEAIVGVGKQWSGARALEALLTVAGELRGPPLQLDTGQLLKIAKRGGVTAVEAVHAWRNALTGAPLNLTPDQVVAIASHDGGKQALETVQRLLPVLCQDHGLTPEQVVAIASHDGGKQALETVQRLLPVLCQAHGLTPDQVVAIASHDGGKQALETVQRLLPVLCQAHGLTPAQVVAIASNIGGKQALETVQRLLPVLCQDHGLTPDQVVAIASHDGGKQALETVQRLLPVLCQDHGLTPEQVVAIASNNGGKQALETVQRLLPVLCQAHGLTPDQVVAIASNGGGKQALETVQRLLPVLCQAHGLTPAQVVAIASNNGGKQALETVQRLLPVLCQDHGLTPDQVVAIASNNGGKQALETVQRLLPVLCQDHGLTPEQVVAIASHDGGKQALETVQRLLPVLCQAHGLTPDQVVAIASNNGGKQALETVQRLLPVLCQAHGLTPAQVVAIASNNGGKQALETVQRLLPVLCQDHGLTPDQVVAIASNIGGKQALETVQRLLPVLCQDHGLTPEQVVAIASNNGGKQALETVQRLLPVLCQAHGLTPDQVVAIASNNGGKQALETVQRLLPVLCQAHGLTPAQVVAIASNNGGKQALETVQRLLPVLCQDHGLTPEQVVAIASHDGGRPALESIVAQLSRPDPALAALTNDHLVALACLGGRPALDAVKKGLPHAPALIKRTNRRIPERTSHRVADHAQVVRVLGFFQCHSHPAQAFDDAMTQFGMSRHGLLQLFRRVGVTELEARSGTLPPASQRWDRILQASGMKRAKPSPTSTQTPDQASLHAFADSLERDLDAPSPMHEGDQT
Procedure: as §1, §2

NTP-TALE-TERT-1-p300CD = molecular target: T3, NTP-TALE-TERT-1-p300CD (artificial, UniProt P14727 SEQ:29-906)
T3 chain: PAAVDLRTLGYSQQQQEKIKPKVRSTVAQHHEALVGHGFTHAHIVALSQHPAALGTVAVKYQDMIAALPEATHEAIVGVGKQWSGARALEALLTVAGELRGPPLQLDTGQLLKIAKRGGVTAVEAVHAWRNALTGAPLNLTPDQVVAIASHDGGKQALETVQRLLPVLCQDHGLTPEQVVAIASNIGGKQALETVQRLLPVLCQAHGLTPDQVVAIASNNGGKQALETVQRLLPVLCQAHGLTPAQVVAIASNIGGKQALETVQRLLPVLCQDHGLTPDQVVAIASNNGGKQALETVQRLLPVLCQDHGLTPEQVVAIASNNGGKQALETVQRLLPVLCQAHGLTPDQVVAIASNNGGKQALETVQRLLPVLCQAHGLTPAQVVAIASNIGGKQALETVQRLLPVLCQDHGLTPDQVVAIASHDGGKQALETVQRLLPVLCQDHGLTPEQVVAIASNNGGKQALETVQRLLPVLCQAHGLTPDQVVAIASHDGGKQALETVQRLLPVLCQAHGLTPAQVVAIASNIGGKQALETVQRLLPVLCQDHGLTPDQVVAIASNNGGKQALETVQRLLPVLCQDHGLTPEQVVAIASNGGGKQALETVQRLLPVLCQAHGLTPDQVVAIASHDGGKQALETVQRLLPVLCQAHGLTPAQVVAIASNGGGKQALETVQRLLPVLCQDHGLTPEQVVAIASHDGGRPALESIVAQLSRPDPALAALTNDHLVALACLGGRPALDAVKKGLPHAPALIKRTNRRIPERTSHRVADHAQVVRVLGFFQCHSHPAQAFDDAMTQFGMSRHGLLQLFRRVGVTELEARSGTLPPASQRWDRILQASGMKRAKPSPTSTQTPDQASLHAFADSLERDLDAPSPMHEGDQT
Procedure: as §1, §2

B1: human TERT enhancer target (AH007699.2 nt 6501-6518) (dsDNA)
DNA 1: TAGACCCTGGCAGGCACT
DNA 2: AGTGCCTGCCAGGGTCTA
activity (NTP-TALE-TERT-3-p300CD): ~2 fold TERT mRNA

B2: human TERT promoter target (AH007699.2 nt 11029-11046) (dsDNA)
DNA 1: CCCCACGTGGCGGAGGGA
DNA 2: TCCCTCCGCCACGTGGGG
activity (NTP-TALE-TERT-2-p300CD): ~3.5 fold TERT mRNA

B3: human TERT enhancer target (AH007699.2 nt 49444-49461) (dsDNA)
DNA 1: TCAGAGGGACGCAGTCTT
DNA 2: AAGACTGCGTCCCTCTGA
activity (NTP-TALE-TERT-1-p300CD): ~17 fold TERT mRNA
